Test results from patent publication US20130347134A1, “TRANSGENIC VON WILLEBRAND FACTOR ANIMALS AND USES THEREOF” (priority 2012, published 2013).
Values belong to the substance of their own block, whether it stands above or below them.

What was measured:
[1] = molecular target: human platelet glycoprotein Ib alpha (GPIb α) on human platelets (human) (UniProt P07359); assay: cell-based or functional assay
[2] = molecular target: murine platelet glycoprotein Ib alpha (GPIb α) on mouse platelets (mouse) (UniProt O35930); assay: cell-based or functional assay
[3] = molecular target: human platelet glycoprotein Ib alpha (GPIb α) on human platelets (human) (UniProt P07359); assay: human whole blood over immobilized protein, parallel-plate flow chamber, 1600 s^-1
[4] = molecular target: human platelet glycoprotein Ib alpha (GPIb α) on human platelets (human) (UniProt P07359); assay: translocation of human platelets on immobilized plasma VWF in flow
[5] = molecular target: human platelet glycoprotein Ib alpha (GPIb α) on human platelets (human) (UniProt P07359); assay: blocking in a parallel-plate flow chamber: human whole blood treated with mAb AP-1 perfused over surface-immobilized murine plasma VWF R1326H (the blocked ligand), shear rate 1,600 s^-1; about 4,600 without antibody
[6] = molecular target: human platelet glycoprotein Ib alpha (GPIb α) on human platelets (human) (UniProt P07359); assay: blocking in a parallel-plate flow chamber: human whole blood treated with mAb 6D1 perfused over surface-immobilized murine plasma VWF R1326H (the blocked ligand), shear rate 1,600 s^-1; about 4,600 without antibody
[7] = molecular target: human platelet integrin αIIb β3 on human platelets (human) (UniProt P08514); assay: cell-based or functional assay

murine platelet glycoprotein Ib alpha (GPIb α) on mouse platelets (mouse), sequence (O35930 17-734): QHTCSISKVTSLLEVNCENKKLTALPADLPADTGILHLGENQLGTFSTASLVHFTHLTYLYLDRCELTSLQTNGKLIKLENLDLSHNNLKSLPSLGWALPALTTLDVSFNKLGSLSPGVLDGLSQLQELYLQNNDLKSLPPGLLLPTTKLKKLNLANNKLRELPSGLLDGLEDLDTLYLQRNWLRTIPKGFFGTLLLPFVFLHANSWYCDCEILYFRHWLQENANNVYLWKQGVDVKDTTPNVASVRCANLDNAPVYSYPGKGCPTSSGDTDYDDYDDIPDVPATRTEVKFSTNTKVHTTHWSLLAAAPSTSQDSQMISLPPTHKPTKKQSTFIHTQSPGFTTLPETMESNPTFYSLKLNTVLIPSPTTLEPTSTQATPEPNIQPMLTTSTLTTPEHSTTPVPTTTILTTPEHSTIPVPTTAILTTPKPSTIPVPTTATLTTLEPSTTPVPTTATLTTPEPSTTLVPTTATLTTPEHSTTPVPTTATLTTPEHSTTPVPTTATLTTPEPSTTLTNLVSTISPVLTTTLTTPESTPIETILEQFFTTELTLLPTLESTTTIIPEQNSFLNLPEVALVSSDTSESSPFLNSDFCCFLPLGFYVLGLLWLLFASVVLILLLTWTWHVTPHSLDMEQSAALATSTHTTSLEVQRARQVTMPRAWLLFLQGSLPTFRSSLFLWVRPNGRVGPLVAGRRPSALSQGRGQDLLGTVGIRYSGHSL

Substance: murine plasma VWF containing the 1326R>H mutation (VWF^1326R>H), Q8CIZ8 764-2813
- average thrombus size, human platelets in homozygous VWF^1326R>H mice [1]: 8950 µm^2
- share of human cells in thrombi, laser injury in homozygous VWF^1326R>H mice [1]: 91.7%
- tail bleeding time of VWF^1326R>H mice infused with human platelets [1]: 182 s
- increase in tail bleeding time, heterozygous animals versus WT [2]: 1.9 fold
- reduction in thrombi formed on collagen, whole blood of knock-in mice, 1600 s^-1 [2]: 70%
- reduction in thrombus formation on surface-immobilized collagen, whole blood of homozygous mutant mice (FIG. 26) [2]: 80%
- translocation velocity of human platelets [4]: 3.5 µm/sec

Substance: function-blocking monoclonal antibody 6D1 (anti-human GPIb α)
- human platelet thrombus size in VWF^1326R>H mice after pre-treatment with the mAb [1]: 265 µm^2
- Human platelet accumulation/mm2 [6]: 0 /mm2

Results, then the substance that gave them:

- share of human platelets in total thrombus area, WT mice [1]: 5.7%
- ristocetin-induced platelet aggregation (RIPA), murine PRP, 2.5 mg/ml ristocetin [2]: 30%
- platelet deposition relative to same-species control [3]: 10%
Substance: murine plasma von Willebrand factor (VWF), wild type, Q8CIZ8 764-2813

- human platelet thrombus size in VWF^1326R>H mice after pre-treatment with the mAb [1]: 198 µm^2
- Human platelet accumulation/mm2 [5]: 0 /mm2
Substance: GPIb α function-blocking antibody AP-1

- human platelet thrombus size in VWF^1326R>H mice after pre-treatment with the mAb [7]: 529 µm^2
Substance: function-blocking monoclonal antibody 7E3 (anti-human αIIb β3)
